Article PMC12670400, “LEKTI-Grafted Sunflower Trypsin Inhibitor: A Potential Therapeutic for Skin Diseases” (Journal of Medicinal Chemistry, 2025)
Bridge positions count the residues as written; N and C are the ends. Ends that are not written are not given here.

Legend:
[1] = tested on: KLK5-mediated PAR2 activation; assay: PAR2-dependent intracellular calcium mobilization assay in N/TERT keratinocytes; assay type: cell-based; settings: peptide 400 μM
Excerpt: PAR2, a member of the G-protein-coupled receptor family expressed in keratinocytes, is a known downstream target of KLK5. KLK5 activates PAR2 by cleaving its extracellular N-terminal domain. This cleavage exposes a tethered ligand, which binds PAR2 intramolecularly to activate the receptor. , Activated PAR2 causes protein kinase C (PKC) and inositol 1,4,5-trisphosphate (IP3) activation, leading to calcium release from the endoplasmic reticulum, known as intracellular calcium mobilization. […] This delay is attributed to the time required for KLK5 to enzymatically cleave the extracellular N-terminal domain of PAR2, thereby exposing the tethered ligand sequence necessary to initiate receptor activation and downstream calcium signaling. […] This observation confirmed PAR2-dependent calcium mobilization and that rKLK5 could initiate PAR2 activation. The inhibition potential of lead 7 on KLK5 activity was then assessed by using this assay. rKLK5 was preincubated with lead 7 at concentrations of 2.5, 5, 20, or 40 μM for one hour before being applied to cultured keratinocytes, after which PAR2-dependent calcium mobilization was measured.
For Ki calculation, Km values for KLK5 and its substrate Boc-VPR-AMC were previously reported in the literature 8, 9, allowing the conversion from IC50 to Ki using the Cheng Prusoff equation10 Kᵢ = IC₅₀ / (1 + [S]/Kₘ) for single-site competitive binding.
Cell lines and tissue cultures
Keratinocytes isolated from the skin in a patient with genetic skin disease Netherton Syndrome (NS19) and in healthy donors (C42, C46, P8) were used in the study. […]
The immortalized keratinocyte cell line (N/TERT)13, 14 were used for the assay. […] The cells were counted, and 100 µL of the suspension, at a density of 600,000 cells/mL, was seeded into each well of a 96 -well microplate. […]
calcium signalling. […] Fluorescence excitation was set at 485 nm, and emission was recorded at 520 nm using SpectraMax® i3x plate reader. […]

KLK7 [2] = target: T1, KLK7 (Homo sapiens, UniProt P49862); design: purchased R&D Systems 2624-SE; settings: read-out: Ki against KLK7; cited from earlier work
Target sequence in this assay (P49862 30-253): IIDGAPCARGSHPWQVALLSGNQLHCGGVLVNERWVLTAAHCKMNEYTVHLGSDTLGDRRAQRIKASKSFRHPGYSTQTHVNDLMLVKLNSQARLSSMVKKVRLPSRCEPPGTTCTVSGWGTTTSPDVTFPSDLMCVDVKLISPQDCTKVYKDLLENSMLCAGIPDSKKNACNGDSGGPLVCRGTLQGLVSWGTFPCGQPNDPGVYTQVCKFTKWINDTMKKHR

KLK5 = target: T2, KLK5 (Homo sapiens, UniProt Q9Y337); settings: prior findings, reference not given; read-out: Ki against KLK5; cited from earlier work
T2 construct: purchased R&D Systems 1108-SE
T2 sequence (Q9Y337 23-293): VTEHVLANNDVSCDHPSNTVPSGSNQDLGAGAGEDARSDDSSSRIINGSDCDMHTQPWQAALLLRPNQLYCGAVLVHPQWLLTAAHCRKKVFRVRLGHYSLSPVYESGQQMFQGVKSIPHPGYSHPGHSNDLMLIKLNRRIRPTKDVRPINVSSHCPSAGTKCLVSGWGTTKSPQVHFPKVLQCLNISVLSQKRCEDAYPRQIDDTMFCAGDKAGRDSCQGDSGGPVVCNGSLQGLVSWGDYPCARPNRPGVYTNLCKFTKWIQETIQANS

[3] = target: T3, Kallikrein-related peptidase 5 (KLK5) (UniProt Q9Y337 23-293); assay: enzyme inhibition assay (fluorogenic substrate); inhibition of KLK5 activity by the peptide, fluorogenic substrate Boc-VPR-AMC, n = 3; conditions in the Supporting Information; settings: both partners purified
KLK8 = target: T4, KLK8 (UniProt O60259 33-260); assay: enzyme inhibition assay (fluorogenic substrate); selectivity: inhibition of KLK7, KLK8 or KLK14 activity by the peptide, n = 3; substrates and conditions in the Supporting Information; settings: both partners purified
T4 construct: Kallikrein 8 (KLK8); construct and source are in the Supporting Information
T4 sequence (looked up): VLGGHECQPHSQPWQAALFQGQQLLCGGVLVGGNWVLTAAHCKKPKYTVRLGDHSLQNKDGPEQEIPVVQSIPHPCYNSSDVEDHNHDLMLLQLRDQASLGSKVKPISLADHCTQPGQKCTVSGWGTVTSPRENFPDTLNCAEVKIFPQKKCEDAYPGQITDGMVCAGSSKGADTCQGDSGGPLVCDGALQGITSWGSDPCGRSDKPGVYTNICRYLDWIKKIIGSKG

KLK7 [4] = target: T1, KLK7; assay: as above
[5] = target: T3, Kallikrein-related peptidase 5 (KLK5); assay: enzyme inhibition assay (fluorogenic substrate); inhibition of KLK5 activity by the peptide, fluorogenic substrate Boc-VPR-AMC, n = 3; conditions in the Supporting Information; settings: both partners purified; remark: listed apart in the source
KLK14 = target: T5, KLK14 (UniProt Q9P0G3); assay: enzyme inhibition assay (fluorogenic substrate); selectivity: inhibition of KLK7, KLK8 or KLK14 activity by the peptide, n = 3; substrates and conditions in the Supporting Information
T5 sequence (Q9P0G3 41-267, species assumed, looked up): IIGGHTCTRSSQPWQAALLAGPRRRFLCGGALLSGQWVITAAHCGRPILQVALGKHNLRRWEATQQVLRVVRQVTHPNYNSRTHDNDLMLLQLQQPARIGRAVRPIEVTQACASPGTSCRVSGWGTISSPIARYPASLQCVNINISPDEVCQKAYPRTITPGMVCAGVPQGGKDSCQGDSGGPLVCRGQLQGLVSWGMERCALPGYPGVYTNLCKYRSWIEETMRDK

SLIGRL-NH2 [AP, reference compound]
calcium mobilization on stimulation of keratinocytes [1]: PAR2-dependent calcium mobilization was observed

LRGILS-NH2 [R-AP, reference compound]
calcium mobilization on stimulation of keratinocytes [1]: did not induce calcium mobilization

α1-antichymotrypsin [reference compound]
Ki (KLK7 [2]): 500 nM

B1: LEKTI Domain 5: domain 5 of the endogenous serine protease inhibitor LEKTI (protein)
chain: REIVKLCSQYQNQAKNGILFCTRENDPIRGPDGKMHGNLCSMCQAYFQAENEEKKKAEARAR
modifications: Kazal-type disulfides
Ki (KLK5): 32.8 nM

B2: SFTI analogue 8 (peptide)
peptide: cyclo(GFCHRSYPPECWPN)
modifications: disulfide 3-11 (inferred)
notes: SFTI scaffold grafted with residues of a LEKTI or LEKTI-like domain, glutamic acid at position 10; also called compound 8; source: synthetic peptide (hydrazide peptide, cyclised via native chemical ligation, oxidised, RP-HPLC purified)
IC50 [3]: 8.6 ± 2 nM | IC50 (KLK8): > 1000 nM | IC50 (KLK7 [4]): > 1000 nM | Ki [5]: 8 nM

B3: LEKTI-grafted SFTI analogue, lead 7 (peptide)
peptide: cyclo(GFCTRSNPPECWPN)
modifications: disulfide 3-11 (inferred)
notes: SFTI scaffold grafted with residues of a LEKTI domain, glutamic acid at position 10; source: synthetic peptide (hydrazide peptide, cyclised via native chemical ligation, oxidised, RP-HPLC purified)
IC50 [3]: 14 ± 4 nM | IC50 (KLK8): > 1000 nM | IC50 (KLK14): > 1000 nM | IC50 (KLK7 [4]): > 1000 nM | Ki [5]: 11 nM

B4: LEKTI Domain 6: domain 6 of the endogenous serine protease inhibitor LEKTI (protein)
chain: ESGKATSYAELCNEYRKLVRNGKLACTRENDPIQGPDGKVHGNTCSMCEVFFQAEEEEKKKKEGESRN
modifications: Kazal-type disulfides
Ki (KLK5): 83.3 nM
